Experimental findings from patent US20130136731 are described below.

This data set concerns N_EGF_TCS_SK.

Consider thrombin, for which the “cleavage of the purified construct by thrombin (N-terminal protein sequencing)” value was “The thrombin cleavage was indeed found to be true in case of the purified construct, after treatment with thrombin”.
